Target: soluble recombinant uPAR (suPAR), expressed in Drosophila S2 cells (UniProt Q03405)
Sequence (Q03405 23-299): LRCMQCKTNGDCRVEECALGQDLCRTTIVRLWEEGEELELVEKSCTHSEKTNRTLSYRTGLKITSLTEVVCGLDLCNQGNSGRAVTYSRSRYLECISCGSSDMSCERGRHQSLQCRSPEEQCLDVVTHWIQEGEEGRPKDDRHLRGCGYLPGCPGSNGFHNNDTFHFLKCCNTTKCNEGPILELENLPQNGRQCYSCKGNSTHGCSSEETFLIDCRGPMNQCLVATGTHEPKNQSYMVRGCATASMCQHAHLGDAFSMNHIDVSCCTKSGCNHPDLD

recombinant human single chain urokinase plasminogen activator (scuPA), wild-type, aa1-411 of the mature human sequence, expressed in Drosophila S2 cells
activity of scuPA in complex with suPAR: scuPA prepared in this manner was active in complex with suPAR as well as when activated by plasmin
